Source: patent publication US12358959B2, “Compositions and methods for oligodendrocyte development” (CHILDREN'S MEDICAL CENTER CORPORATION, priority 2016, dated 2025)

B1: GPR56 (ADGRG1), mouse, on cells (oligodendrocyte precursor cells; HEK 293T cells transfected with mouse Gpr56 cDNA) (receptor, UniProt Q8K209 26-687, looked up)
chain: GSPREDFRFCGQRNQTQQSTLHYDQSSEPHIFVWNTEETLTIRAPFLAAPDIPRFFPEPRGLYHFCLYWSRHTGRLHLRYGKHDYLLSSQASRLLCFQKQEQSLKQGAPLIATSVSSWQIPQNTSLPGAPSFIFSFHNAPHKVSHNASVDMCDLKKELQQLSRYLQHPQKAAKRPTAAFISQQLQSLESKLTSVSFLGDTLSFEEDRVNATVWKLPPTAGLEDLHIHSQKEEEQSEVQAYSLLLPRAVFQQTRGRRRDDAKRLLVVDFSSQALFQDKNSSQVLGEKVLGIVVQNTKVTNLSDPVVLTFQHQPQPKNVTLQCVFWVEDPASSSTGSWSSAGCETVSRDTQTSCLCNHLTYFAVLMVSSTEVEATHKHYLTLLSYVGCVISALACVFTIAAYLCSRRKSRDYTIKVHMNLLSAVFLLDVSFLLSEPVALTGSEAACRTSAMFLHFSLLACLSWMGLEGYNLYRLVVEVFGTYVPGYLLKLSIVGWGFPVFLVTLVALVDVNNYGPIILAVRRTPERVTYPSMCWIRDSLVSYVTNLGLFSLVFLFNLAMLATMVVQILRLRPHSQNWPHVLTLLGLSLVLGLPWALVFFSFASGTFQLVILYLFSIITSFQGFLIFLWYWSMRFQAQGGPSPLKNNSDSAKLPISSGSTSSSRI
notes: whole, on cells; not used here; also called OPC GPR56; OPC-GPR56
B2: Col III: collagen III (gene symbol Col3a1), ligand for GPR56 in the developing cerebral cortex (protein, UniProt P08121 155-1219, looked up)
Collagen alpha-1(III) chain: QFDSYDVKSGVGGMGGYPGPAGPPGPPGPPGSSGHPGSPGSPGYQGPPGEPGQAGPAGPPGPPGALGPAGPAGKDGESGRPGRPGERGLPGPPGIKGPAGMPGFPGMKGHRGFDGRNGEKGETGAPGLKGENGLPGDNGAPGPMGPRGAPGERGRPGLPGAAGARGNDGARGSDGQPGPPGPPGTAGFPGSPGAKGEVGPAGSPGSNGSPGQRGEPGPQGHAGAQGPPGPPGNNGSPGGKGEMGPAGIPGAPGLIGARGPPGPAGTNGIPGTRGPSGEPGKNGAKGEPGARGERGEAGSPGIPGPKGEDGKDGSPGEPGANGLPGAAGERGPSGFRGPAGPNGIPGEKGPPGERGGPGPAGPRGVAGEPGRDGTPGGPGIRGMPGSPGGPGNDGKPGPPGSQGESGRPGPPGPSGPRGQPGVMGFPGPKGNDGAPGKNGERGGPGGPGLPGPAGKNGETGPQGPPGPTGPAGDKGDSGPPGPQGLQGIPGTGGPPGENGKPGEPGPKGEVGAPGAPGGKGDSGAPGERGPPGTAGIPGARGGAGPPGPEGGKGPAGPPGPPGASGSPGLQGMPGERGGPGSPGPKGEKGEPGGAGADGVPGKDGPRGPAGPIGPPGPAGQPGDKGEGGSPGLPGIAGPRGGPGERGEHGPPGPAGFPGAPGQNGEPGAKGERGAPGEKGEGGPPGPAGPTGSSGPAGPPGPQGVKGERGSPGGPGTAGFPGGRGLPGPPGNNGNPGPPGPSGAPGKDGPPGPAGNSGSPGNPGIAGPKGDAGQPGEKGPPGAQGPPGSPGPLGIAGLTGARGLAGPPGMPGPRGSPGPQGIKGESGKPGASGHNGERGPPGPQGLPGQPGTAGEPGRDGNPGSDGQPGRDGSPGGKGDRGENGSPGAPGAPGHPGPPGPVGPSGKSGDRGETGPAGPSGAPGPAGARGAPGPQGPRGDKGETGERGSNGIKGHRGFPGNPGPPGSPGAAGHQGAIGSPGPAGPRGPVGPHGPPGKDGTSGHPGPIGPPGPRGNRGERGSEGSPGHPGQPGPPGPPGAPGPCCGGGAAAIAGVGGEKSGGFSPYYG

Experiments:
GPR56^N = target: T1, GPR56^N (Mus musculus, UniProt Q8K209); experiment: In vitro biotinylation/proteomics pull-down from mixed glial cell lysate with mass spectrometry; conditions: peptide sequences specific for binding to GPR56^N
T1 construct: Using the soluble N-terminal fragment of GPR56 (GPR56^N); made in house
Text: To identify the ligand of GPR56 in OPCs, an in vitro biotinylation/proteomics approach was employed using single-step capture on streptavidin beads to purify the binding partner(s) of GPR56 (FIGS. 2A-2B). Proteins with more than five identified tryptic peptides in the Mass Spectrometry (MS) output from three independent experiments are listed at Table 1.
(§1) GPR56^N and GPR56^Ndel fusions proteins with either mFc or hFc tag were generated as previously described (Luo et al. Proc Natl Acad Sci USA 108, 12925-12930, 2011). BirA enzyme was used to in vitro biotinylate GPR56^N-mFc-biotag protein as previously described (De Laurenzi and Melino Mol Cell Biol 21, 148-155, 2001). Mixed glial cell lysate was incubated with biotinylated GPR56^N protein in lysis buffer [20 mM Hepes (pH 7.3), 150 mM NaCl, and 5 mM MgCl2] with protein inhibitor mixture (Roche Molecular Biochemicals) and 1% Brij 96 (Fluka). Streptavidin beads (Sigma) were used to affinity purify immunocomplexes. GPR56-associated proteins were eluted in 2×SDS loading buffer, subjected to SDS/PAGE. The whole lane was used for MS at the Taplin Biological Mass Spectrometry at Havard Medical School. MS data were searched against the mouse International Protein Index (IPI mouse 339) database using the protein identification software Mascot (v2.2.04, Matrix Sciences) (Luo et al. Proc Natl Acad Sci USA 108, 12925-12930, 2011).
as §1, with “al.,” for “al.”, “(Stacey et al., J” for “(De Laurenzi and Melino Mol Cell”, “Chem 277, 29283-29293, 2002).” for “21, 148-155, 2001).”, “(20” for “[20”, “[pH 7.3],” for “(pH 7.3),”, “MgCl2)” for “MgCl2]”

[1] = target: T2, Transglutaminase 2 (Tgm2), mouse, endogenous (mixed glial cell lysate / microglia-derived) (mouse, UniProt P21981 2-686); experiment: figure legend of the summary model
T2 construct: Endogenous protein captured from lysate, or present in mouse tissue; also called TG2; microglial TG2
T2 sequence (looked up): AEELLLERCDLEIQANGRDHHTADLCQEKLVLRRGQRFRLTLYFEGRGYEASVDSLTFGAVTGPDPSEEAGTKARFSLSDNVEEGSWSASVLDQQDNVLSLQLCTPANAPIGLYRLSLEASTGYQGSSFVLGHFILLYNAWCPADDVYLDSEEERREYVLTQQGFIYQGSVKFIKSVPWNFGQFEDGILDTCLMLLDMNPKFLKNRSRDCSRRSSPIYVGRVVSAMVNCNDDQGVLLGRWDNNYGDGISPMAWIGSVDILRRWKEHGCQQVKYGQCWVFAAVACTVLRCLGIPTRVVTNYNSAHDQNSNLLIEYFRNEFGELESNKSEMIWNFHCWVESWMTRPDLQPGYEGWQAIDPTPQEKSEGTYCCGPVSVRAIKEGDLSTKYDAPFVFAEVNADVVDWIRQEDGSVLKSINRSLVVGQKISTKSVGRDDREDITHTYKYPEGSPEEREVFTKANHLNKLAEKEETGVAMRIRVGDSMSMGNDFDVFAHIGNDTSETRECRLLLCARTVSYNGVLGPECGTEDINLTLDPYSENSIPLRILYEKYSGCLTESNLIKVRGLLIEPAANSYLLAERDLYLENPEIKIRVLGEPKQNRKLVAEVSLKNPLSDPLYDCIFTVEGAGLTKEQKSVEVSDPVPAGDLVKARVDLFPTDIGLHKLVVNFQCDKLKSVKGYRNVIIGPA

[2] = target: T3, human recombinant Transglutaminase 2 (TG2) (human, UniProt P21980 1-687, limits assumed); experiment: told in words; NTF release from HEK 293T cells expressing mouse GPR56
T3 construct: also called recombinant TG2; recombinant TGM2
T3 sequence: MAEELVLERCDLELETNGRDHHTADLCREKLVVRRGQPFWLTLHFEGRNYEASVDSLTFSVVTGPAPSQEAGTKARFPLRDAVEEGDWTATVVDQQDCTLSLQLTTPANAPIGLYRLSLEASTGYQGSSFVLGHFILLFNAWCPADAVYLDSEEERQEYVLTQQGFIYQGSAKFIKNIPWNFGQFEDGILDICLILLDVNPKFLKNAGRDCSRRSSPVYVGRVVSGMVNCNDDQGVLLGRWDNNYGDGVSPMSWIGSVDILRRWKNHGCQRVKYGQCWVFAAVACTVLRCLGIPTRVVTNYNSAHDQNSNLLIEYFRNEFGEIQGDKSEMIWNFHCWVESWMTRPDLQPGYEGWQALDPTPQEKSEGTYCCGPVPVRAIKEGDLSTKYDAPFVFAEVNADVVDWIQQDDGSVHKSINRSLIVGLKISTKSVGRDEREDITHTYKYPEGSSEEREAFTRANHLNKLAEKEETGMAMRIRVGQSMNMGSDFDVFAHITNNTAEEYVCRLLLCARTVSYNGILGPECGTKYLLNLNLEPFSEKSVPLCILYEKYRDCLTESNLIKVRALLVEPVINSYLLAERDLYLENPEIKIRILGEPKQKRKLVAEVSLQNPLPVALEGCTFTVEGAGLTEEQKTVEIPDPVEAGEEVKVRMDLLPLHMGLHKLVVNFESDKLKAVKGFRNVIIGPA
Text: HEK 293T cells were transiently transfected with mouse Gpr56 cDNA. […] The conditioned media were harvested, filtered, and concentrated as previously described. Equal volumes of the concentrated media were used for Western blot (Luo et al., PLOS One 9, e100043, 2014), while the cell pellets were used for GTP-Rho pull-down assay.

GPR56 NTF (GPR56^N) [3] = target: GPR56 NTF (GPR56^N) (Mus musculus, UniProt Q8K209); conditions: between amino acids 27-160; cited from earlier work
GPR56 NTF (GPR56^N) [4] = target: GPR56 NTF (GPR56^N) (Mus musculus, UniProt Q8K209, DEL93-142); conditions: aa 93-142 deleted; cited from earlier work
Chain of GPR56 NTF (GPR56^N) (Mus musculus, UniProt Q8K209, DEL93-142) (Q8K209 with tags, fused parts or gaps DEL93-142): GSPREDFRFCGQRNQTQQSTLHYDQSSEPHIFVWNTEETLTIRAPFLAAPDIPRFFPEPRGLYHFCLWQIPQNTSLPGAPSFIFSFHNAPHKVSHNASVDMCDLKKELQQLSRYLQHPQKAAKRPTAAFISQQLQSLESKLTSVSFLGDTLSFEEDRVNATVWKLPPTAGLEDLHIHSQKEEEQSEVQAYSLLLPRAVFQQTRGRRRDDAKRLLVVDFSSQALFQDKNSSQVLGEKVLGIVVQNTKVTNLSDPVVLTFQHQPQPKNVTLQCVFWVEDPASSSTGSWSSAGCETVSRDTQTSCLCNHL

Row | Molecule | Peptide Number (Exp1) (GPR56^N; experiment 1) | Peptide Number (Exp2) (GPR56^N; experiment 2) | Peptide Number (Exp3) (GPR56^N; experiment 3) | binding result [1] | binding result [2] | Binding to GPR56 NTF (GPR56^N) (GPR56 NTF (GPR56^N) [3]) | Binding to GPR56^Ndel (GPR56 NTF (GPR56^N) [4])
1 | B1 | 12 | 11 | 9 | binds | binds | – | –
2 | B2 | – | – | – | – | – | binds | abrogated Col III binding
